# Several values for one entry are separate records, joined by “and”; a condition that tells them apart may be missing. Equal values may be shown once.
# B1: Glypican-1, P35052 (parent)
# chain: MELRARGWWLLCAAAALVACARGDPASKSRSCGEVRQIYGAKGFSLSDVPQAEISGEHLRICPQGYTCCTSEMEENLANRSHAELETALRDSSRVLQAMLATQLRSFDDHFQHLLNDSERTLQATFPGAFGELYTQNARAFRDLYSELRLYYRGANLHLEETLAEFWARLLERLFKQLHPQLLLPDDYLDCLGKQAEALRPFGEAPRELRLRATRAFVAARSFVQGLGVASDVVRKVAQVPLGPECSRAVMKLVYCAHCLGVPGARPCPDYCRNVLKGCLANQADLDAEWRNLLDSMVLITDKFWGTSGVESVIGSVHTWLAEAINALQDNRDTLTAKVIQGCGNPKVNPQGPGPEEKRRRGKLAPRERPPSGTLEKLVSEAKAQLRDVQDFWISLPGTLCSEKMALSTASDDRCWNGMARGRYLPEVMGDGLANQINNPEVEVDITKPDMTIRQQIMQLKIMTNRLRSAYNGNDVDFQDASDDGSGSGSGDGCLDDLCSRKVSRKSSSSRTPLTHALPGLSEQEGQKTSAASCPQPPTFLLPLLLFLALTVARPRWR
# B2: Ornithine carbamoyltransferase subunit I, P04391 (parent)
# chain: MSGFYHKHFLKLLDFTPAELNSLLQLAAKLKADKKSGKEEAKLTGKNIALIFEKDSTRTRCSFEVAAYDQGARVTYLGPSGSQIGHKESIKDTARVLGRMYDGIQYRGYGQEIVETLAEYASVPVWNGLTNEFHPTQLLADLLTMQEHLPGKAFNEMTLVYAGDARNNMGNSMLEAAALTGLDLRLVAPQACWPEAALVTECRALAQQNGGNITLTEDVAKGVEGADFIYTDVWVSMGEAKEKWAERIALLREYQVNSKMMQLTGNPEVKFLHCLPAFHDDQTTLGKKMAEEFGLHGGMEVTDEVFESAASIVFDQAENRMHTIKAVMVATLSK
# B3: Penicillolysin, P47189 (parent)
# chain: MRFTTLSTAFLALAQNVYAFPIESDLSALDVTLSQVSDTRIKAVVKNTGAENVTFVHLNFFRDSAPVKKVSVYRENNEVVFDGIKRRFQLQGLASESLTTLEAGEVLEDEFDIATTTDLSSGGAITLRSNGLVPVVKDGAVTGYLPYSSNDLKLNIDGAKASTVTKALKPLDRRTKETCSNASRKSALEKALSNTVKLANAAATAARSGSASKFSEYFKTTSSSTRSVVAARLEAVAKEAQSASSGSTTYYCSDTLGYCETNVLAYTLPARNIIANCDIYYSYLPALAGTCHQQDQATTTLHEFTHAPGVYSPGTDDLGYGYSAATSLSSSQAVLNADSYALYANAINLGC
# B4: Tryptophan synthase alpha chain, P0A877 (parent)
# chain: MERYESLFAQLKERKEGAFVPFVTLGDPGIEQSLKIIDTLIEAGADALELGIPFSDPLADGPTIQNATLRAFAAGVTPAQCFEMLALIRQKHPTIPIGLLMYANLVFNKGIDEFYAQCEKVGVDSVLVADVPVEESAPFRQAALRHNVAPIFICPPNADDDLLRQIASYGRGYTYLLSRAGVTGAENRAALPLNHLVAKLKEYNAAPPLQGFGISAPDQVKAAIDAGAAGAISGSAIVKIIEQHINEPEKMLAALKVFVQPMKAATRS
# B5: Protein GrpE, Q65H53 (parent)
# chain: MAEEKQNEELNEQEELNETEAETAEAEQTAAEADAPAEETQTEMLEKQLKELQERLEEKENKLLRVQADFENYKRRARLDLEAAEKYRSQRIISDLLPALDNFERALQIDPDNEQTKSLLQGMEMVHRQILEALKNEGVEQIPSVGEQFDPNMHQAVMQVEDEAYESNAVVEELQKGYKLKDRVIRPSMVKVNQ
# B6: Chaperone Ric-8A, Q5E9J8 (parent)
# chain: MEPRAVADALETGEEDVVMEALRAYNRENSQSFTFDDAQQEDRKRLAKLLVSVLEQGLPPSRRVIWLQSIRILSRDRSCLDSFTSRRSLQALACYAGISASQGSVPEPLNMDVVLESLKCLCNLVLSSPVAQALAAEAGLVVRLAERVGLCRQSSFPHDVQFFDLRLLFLLTALRTDVRQQLFQELQGVRLLTRALELTLGMTEGERHPELLPPQETERAMEILKVLFNITFDSIKREVDEEDAALYRHLGTLLRHCVMLAAAGDRTEELHGHAVNLLGNLPVKCLDVLLTLEPHEGSLEFLGVNMDVIRVLLSFMEKRLHQTHRLKESVAPVLSVLTECARMHRPARKFLKAQVLPPLRDVRTRPEVGELLRNKLVRLMTHLDTDVKRVAAEFLFVLCSESVPRFIKYTGYGNAAGLLAARGLMAGGRPEGQYSEDEDTDTDEYKEAKASINPVTGRVEEKPPNPMEGMTEEQKEHEAMKLVNMFDKLSRHRVIQPMGMSPRGQLTSLQDAMCETMEGQLSSDPDSDPD
# B7: Decorsin, P17350 (parent)
# chain: APRLPQCQGDDQEKCLCNKDECPPGQCRFPRGDADPYCE
# B8: Gamma-crystallin S, P22914 (parent)
# chain: MSKTGTKITFYEDKNFQGRRYDCDCDCADFHTYLSRCNSIKVEGGTWAVYERPNFAGYMYILPQGEYPEYQRWMGLNDRLSSCRAVHLPSGGQYKIQIFEKGDFSGQMYETTEDCPSIMEQFHMREIHSCKVLEGVWIFYELPNYRGRQYLLDKKEYRKPIDWGAASPAVQSFRRIVE
# B9: Growth factor receptor-bound protein 2, Q08012 (parent)
# chain: MEAIAKHDFSATADDELSFRKTQILKILNMEDDSNWYRAELDGKEGLIPSNYIEMKNHDWYYGRITRADAEKLLSNKHEGAFLIRISESSPGDFSLSVKCPDGVQHFKVLRDAQSKFFLWVVKFNSLNELVEYHRTASVSRSQDVKLRDMIPEEMLVQALYDFVPQESGELDFRRGDVITVTDRSDENWWNGEIGNRKGIFPATYVTPYHS
# Variants of: B1
# Conditions: Homo sapiens; pH 7.4; Thermal; CD; Sodium Phosphate Buffer; reversible: no; structure 4ACR; whole UniProt chain shown
Variant,Tm,"change of melting temperature, mutant - wild type (higher = more stable)"
N79Q,66 °C,0 °C
N79Q N116Q,66 °C,-3 °C

# Same assay, conditions: Homo sapiens; pH 7; 20 °C; Urea; CD; Sodium Phosphate Buffer; transition: 2; structure 4ACR; whole UniProt chain shown
row,Variant,denaturant midpoint (higher = more stable)
1,N79Q N116Q,5.37 M

# Variants of: B2
# Conditions: Escherichia coli (strain K12); pH 8.3; Thermal; DSC; borate 40 mM; structure 1AKM; whole UniProt chain shown
Variant,Tm,unfolding enthalpy (calorimetric)
K87Q,69.7 °C,690 kcal/mol
A326G,63 °C,660 kcal/mol
R320A,69.6 °C,710 kcal/mol

# Variants of: B3
# Conditions: Penicillium citrinum; pH 5; Thermal; CD; sodium acetate 10 mM; reversible: no; whole UniProt chain shown
Variant,Tm,"change of melting temperature, mutant - wild type (higher = more stable)"
A341E,70 °C,2 °C
R207E E234R,70 °C,2 °C
T255P,71 °C,3 °C

# Variants of: B4
# Conditions: Escherichia coli (strain K12); pH 7.8; 25 °C; Urea; Fluorescence; Potassium phosphate 10 mM; reversible: yes; structure 1WQ5; whole UniProt chain shown
row,Variant,unfolding free energy
1,F258W,7 kcal/mol

# Same assay, conditions: Escherichia coli (strain K12); pH 7; 25 °C; Thermal; DSC; tetra-borate 1 mM; reversible: yes(70-95%); structure 1WQ5; whole UniProt chain shown
Variant,unfolding enthalpy (calorimetric),unfolding free energy
E49Q,23.2 kcal/mol,7.4 kcal/mol

# Same assay, conditions: Escherichia coli (strain K12); pH 7; 25.8 °C; GdnHCl; CD; Potassium phosphate 0.01 M; reversible: yes; structure 1WQ5; whole UniProt chain shown
Variant,ddG of mutation (higher = less stable),unfolding free energy
E49Q,2.5 kcal/mol,6.3 kcal/mol
E49M,-4.6 kcal/mol,13.4 kcal/mol

# Same assay, conditions: Escherichia coli (strain K12); pH 7; Thermal; DSC; tetra-borate 1 mM; reversible: yes(70-95%); structure 1WQ5; whole UniProt chain shown
Variant,Tm,heat capacity change of unfolding
E49Q,59.4 °C,2.87 kcal/mol/K

# Same assay, conditions: Escherichia coli (strain K12); pH 7.2; 25 °C; Thermal; CD; tetra-borate 1 mM; reversible: yes(70-95%); structure 1WQ5; whole UniProt chain shown
row,Variant,unfolding free energy
1,E49Q,6.1 kcal/mol

# Same assay, conditions: Escherichia coli (strain K12); pH 7.2; Thermal; CD; tetra-borate 1 mM; reversible: yes(70-95%); structure 1WQ5; whole UniProt chain shown
Variant,Tm,heat capacity change of unfolding,unfolding enthalpy (van 't Hoff)
E49Q,59.6 °C,2.68 kcal/mol/K,14.3 kcal/mol

# Same assay, conditions: Escherichia coli (strain K12); pH 9.3; Thermal; CD; tetra-borate 1 mM; reversible: yes(70-95%); structure 1WQ5; whole UniProt chain shown
Variant,Tm,heat capacity change of unfolding,unfolding enthalpy (van 't Hoff)
E49Q,59.6 °C,2.68 kcal/mol/K,14.3 kcal/mol

# Same assay, conditions: Escherichia coli (strain K12); pH 9.3; Thermal; DSC; tetra-borate 1 mM; reversible: yes(70-95%); structure 1WQ5; whole UniProt chain shown
Variant,Tm,heat capacity change of unfolding
E49Q,62.4 °C,2.87 kcal/mol/K

# Same assay, conditions: Escherichia coli (strain K12); pH 9; Thermal; DSC; Sodium tetraborate 1 mM; reversible: yes(>70%); structure 1WQ5; whole UniProt chain shown
Variant,Tm,"change of melting temperature, mutant - wild type (higher = more stable)"
K109N,52.5 °C,-1.5 °C

# Same assay, conditions: Escherichia coli (strain K12); pH 7.8; 25 °C; Urea; Fluorescence; Potassium phosphate 10 mM; transition: 3; reversible: yes; structure 1WQ5; whole UniProt chain shown
row,Variant,unfolding free energy
1,F139W,5.6 kcal/mol and 4.9 kcal/mol

# Variants of: B5
# Conditions: Bacillus licheniformis (strain ATCC 14580 / DSM 13 / JCM 2505 / CCUG 7422 / NBRC 12200 / NCIMB 9375 / NCTC 10341 / NRRL NRS-1264 / Gibson 46…; pH 7; Thermal; CD; Hepes 10 mM; reversible: Yes; whole UniProt chain shown
Variant,Tm,"change of melting temperature, mutant - wild type (higher = more stable)",unfolding enthalpy (van 't Hoff)
L52P,40.1 °C,-11.9 °C,37.5 kcal/mol
L134H,43.2 °C,-8.8 °C,21 kcal/mol

# Variants of: B6
# Conditions: Bos taurus; pH 7.5; Thermal; DSF; Tris-HCl; KCl; structure 6N85; whole UniProt chain shown
Variant,Tm,"change of melting temperature, mutant - wild type (higher = more stable)"
N123E,46.7 °C,-0.1 °C
A173W,45.6 °C,-1.2 °C
R75M,45.9 °C,-0.9 °C
F169R,45.6 °C,-1.2 °C

# Variants of: B7
# Conditions: Macrobdella decora; pH 7; Thermal; CD; Na2HPO4 10 mM; reversible: Yes; structure 1DEC; whole UniProt chain shown
Variant,Tm,"change of melting temperature, mutant - wild type (higher = more stable)"
P23A P24A,50 °C,-24 °C
P24A,66.5 °C,-7.5 °C
P23A,66.5 °C,-7.5 °C

# Variants of: B8
# Conditions: Homo sapiens; pH 7.4; Thermal; Fluorescence; Disodium phosphate; NaCl; structure 6FD8; whole UniProt chain shown
Variant,Tm,"change of melting temperature, mutant - wild type (higher = more stable)"
S39C,61.3 °C and 58.8 °C,-6.2 °C and -7 °C

# Variants of: B9
# Conditions: Drosophila melanogaster; pH 6; 20 °C; GdnHCl; Fluorescence; phosphate 50 mM; structure 2A36; whole UniProt chain shown
Variant,ddG of mutation (higher = less stable),denaturant m value,unfolding free energy
T22G,-3.6 kcal/mol,2.2 kcal/mol/M,4 kcal/mol

# — FireProtDB
